Measured values published in patent publication US20240174753A1 (ANWITA BIOSCIENCES, published 2024).

T1: CD25-Fc fusion protein (UniProt P01589 22-213, limits assumed)
T1 construct: also called IL-2Rα; not shown: Fc part
T1 sequence (looked up): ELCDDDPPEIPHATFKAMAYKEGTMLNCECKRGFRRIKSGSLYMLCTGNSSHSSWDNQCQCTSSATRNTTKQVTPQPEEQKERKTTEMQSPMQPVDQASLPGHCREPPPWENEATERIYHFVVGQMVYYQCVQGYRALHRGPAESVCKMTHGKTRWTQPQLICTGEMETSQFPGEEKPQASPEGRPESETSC

T2: CD122-Fc fusion protein (UniProt P14784 27-240, limits assumed)
T2 construct: also called IL-2Rβ; not shown: Fc part
T2 sequence (looked up): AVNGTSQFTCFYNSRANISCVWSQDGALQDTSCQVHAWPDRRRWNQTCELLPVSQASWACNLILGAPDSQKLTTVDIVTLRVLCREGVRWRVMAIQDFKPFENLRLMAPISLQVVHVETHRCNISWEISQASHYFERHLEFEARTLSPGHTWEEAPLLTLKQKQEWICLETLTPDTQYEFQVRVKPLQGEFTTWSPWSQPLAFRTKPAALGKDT


What was measured:
[1] = target: T1, CD25-Fc fusion protein; test: BLI (Octet RED96); CD25-Fc on AHC biosensor, IL-2 mutein at 400 nM; set-up: unit not given here
Description: (§1) Briefly, an CD25- or CD122-Fc fusion protein was loaded onto an anti-human IgG Fc capture (AHC) biosensor.

[2] = target: T2, CD122-Fc fusion protein; test: BLI (Octet RED96); CD122-Fc on AHC biosensor, IL-2 mutein at 400 nM; set-up: unit not given here
Description: as §1

| Binder | Binding Response [1] | Binding Response [2] |
| --- | --- | --- |
| IL-2-IL-15 Chimera 1 (C125S) (ligand, Column headed 'Fusion Protein'; no fusion partner is stated for the assay) APTSSSTKKTQLQLEHLLLDLQMILNGIQSMEIDATTFKFYMPKKATELKHLQCLEEELKPLEEVLNLAQSKNFHLRPRDLISNINVIVLELKGSETTFMCEYADETATIVEFLNRWITFSQSIISTLT | < 0.05 | > 0.5 |
| IL-2-IL-15 Chimera 27 (N88A, C125S) (ligand, Column headed 'Fusion Protein'; no fusion partner is stated for the assay) APTSSSTKKTQLQLEHLLLDLQMILNGIQSMEIDATTFKFYMPKKATELKHLQCLEEELKPLEEVLNLAQSKNFHLRPRDLISAINVIVLELKGSETTFMCEYADETATIVEFLNRWITFSQSIISTLT | < 0.05 | < 0.1 |
| IL-2-IL-15 Chimera 23 (D20E, C125S) (ligand, Column headed 'Fusion Protein'; no fusion partner is stated for the assay) APTSSSTKKTQLQLEHLLLELQMILNGIQSMEIDATTFKFYMPKKATELKHLQCLEEELKPLEEVLNLAQSKNFHLRPRDLISNINVIVLELKGSETTFMCEYADETATIVEFLNRWITFSQSIISTLT | < 0.05 | < 0.1 |
| IL-2-IL-15 Chimera 11 (H16E, C125S) (ligand, Column headed 'Fusion Protein'; no fusion partner is stated for the assay) APTSSSTKKTQLQLEELLLDLQMILNGIQSMEIDATTFKFYMPKKATELKHLQCLEEELKPLEEVLNLAQSKNFHLRPRDLISNINVIVLELKGSETTFMCEYADETATIVEFLNRWITFSQSIISTLT | < 0.05 | < 0.2 |
| IL-2-IL-15 Chimera 15 (H16I, C125S) (ligand, Column headed 'Fusion Protein'; no fusion partner is stated for the assay) APTSSSTKKTQLQLEILLLDLQMILNGIQSMEIDATTFKFYMPKKATELKHLQCLEEELKPLEEVLNLAQSKNFHLRPRDLISNINVIVLELKGSETTFMCEYADETATIVEFLNRWITFSQSIISTLT | < 0.05 | < 0.1 |
| IL-2-IL-15 Chimera 17 (H16V, C125S) (ligand, Column headed 'Fusion Protein'; no fusion partner is stated for the assay) APTSSSTKKTQLQLEVLLLDLQMILNGIQSMEIDATTFKFYMPKKATELKHLQCLEEELKPLEEVLNLAQSKNFHLRPRDLISNINVIVLELKGSETTFMCEYADETATIVEFLNRWITFSQSIISTLT | < 0.05 | < 0.1 |
| IL-2-IL-15 Chimera 25 (D20K, C125S) (ligand, Column headed 'Fusion Protein'; no fusion partner is stated for the assay) APTSSSTKKTQLQLEHLLLKLQMILNGIQSMEIDATTFKFYMPKKATELKHLQCLEEELKPLEEVLNLAQSKNFHLRPRDLISNINVIVLELKGSETTFMCEYADETATIVEFLNRWITFSQSIISTLT | < 0.05 | < 0.1 |
| IL-2-IL-15 Chimera 21 (D20A, C125S) (ligand, Column headed 'Fusion Protein'; no fusion partner is stated for the assay) APTSSSTKKTQLQLEHLLLALQMILNGIQSMEIDATTFKFYMPKKATELKHLQCLEEELKPLEEVLNLAQSKNFHLRPRDLISNINVIVLELKGSETTFMCEYADETATIVEFLNRWITFSQSIISTLT | < 0.05 | < 0.1 |
| IL-2-IL-15 Chimera 19 (D20T, C125S) (ligand, Column headed 'Fusion Protein'; no fusion partner is stated for the assay) APTSSSTKKTQLQLEHLLLTLQMILNGIQSMEIDATTFKFYMPKKATELKHLQCLEEELKPLEEVLNLAQSKNFHLRPRDLISNINVIVLELKGSETTFMCEYADETATIVEFLNRWITFSQSIISTLT | < 0.05 | < 0.1 |
| IL-2-IL-15 Chimera 5 (E15K, C125S) (ligand, Column headed 'Fusion Protein'; no fusion partner is stated for the assay) APTSSSTKKTQLQLKHLLLDLQMILNGIQSMEIDATTFKFYMPKKATELKHLQCLEEELKPLEEVLNLAQSKNFHLRPRDLISNINVIVLELKGSETTFMCEYADETATIVEFLNRWITFSQSIISTLT | < 0.05 | > 0.5 |

Now from value to binder:

| Binding Response [1] | Binding Response [2] | Binder |
| --- | --- | --- |
| < 0.05 | < 0.1 | IL-2-IL-15 Chimera 33 (I92D, C125S) (ligand, No fusion partner is stated for the assay; also called IL-2-IL-15 Chimera 29 (I92D, C125S)) APTSSSTKKTQLQLEHLLLDLQMILNGIQSMEIDATTFKFYMPKKATELKHLQCLEEELKPLEEVLNLAQSKNFHLRPRDLISNINVDVLELKGSETTFMCEYADETATIVEFLNRWITFSQSIISTLT |
| < 0.05 | < 0.1 | IL-2-IL-15 Chimera 35 (I92E, C125S) (ligand, No fusion partner is stated for the assay; also called IL-2-IL-15 Chimera 29 (I92E, C125S)) APTSSSTKKTQLQLEHLLLDLQMILNGIQSMEIDATTFKFYMPKKATELKHLQCLEEELKPLEEVLNLAQSKNFHLRPRDLISNINVEVLELKGSETTFMCEYADETATIVEFLNRWITFSQSIISTLT |
| < 0.05 | < 0.1 | IL-2-IL-15 Chimera 29 (I92A, C125S) (ligand, Column headed 'Fusion Protein'; no fusion partner is stated for the assay) APTSSSTKKTQLQLEHLLLDLQMILNGIQSMEIDATTFKFYMPKKATELKHLQCLEEELKPLEEVLNLAQSKNFHLRPRDLISNINVAVLELKGSETTFMCEYADETATIVEFLNRWITFSQSIISTLT |
| < 0.05 | < 0.2 | IL-2-IL-15 Chimera 31 (I92G, C125S) (ligand, No fusion partner is stated for the assay; also called IL-2-IL-15 Chimera 29 (I92G, C125S)) APTSSSTKKTQLQLEHLLLDLQMILNGIQSMEIDATTFKFYMPKKATELKHLQCLEEELKPLEEVLNLAQSKNFHLRPRDLISNINVGVLELKGSETTFMCEYADETATIVEFLNRWITFSQSIISTLT |
| < 0.05 | > 0.5 | hIL-2 Mutein (K32E, F42C, V69C, C125S) (ligand, The description says F42C and V69C form a disulfide bond; Column headed 'Fusion Protein'; no fusion partner is stated for the assay) APTSSSTKKTQLQLEHLLLDLQMILNGINNYENPKLTRMLTCKFYMPKKATELKHLQCLEEELKPLEECLNLAQSKNFHLRPRDLISNINVIVLELKGSETTFMCEYADETATIVEFLNRWITFSQSIISTLT |
| < 0.05 | > 0.5 | hIL-2 Mutein (R38N, L40T, C125S) (ligand, Column headed 'Fusion Protein'; no fusion partner is stated for the assay) APTSSSTKKTQLQLEHLLLDLQMILNGINNYKNPKLTNMTTFKFYMPKKATELKHLQCLEEELKPLEEVLNLAQSKNFHLRPRDLISNINVIVLELKGSETTFMCEYADETATIVEFLNRWITFSQSIISTLT |
| < 0.05 | > 0.5 | hIL-2 Mutein (K32E, R38E, F42K, C125S) (ligand, Column headed 'Fusion Protein'; no fusion partner is stated for the assay) APTSSSTKKTQLQLEHLLLDLQMILNGINNYENPKLTEMLTKKFYMPKKATELKHLQCLEEELKPLEEVLNLAQSKNFHLRPRDLISNINVIVLELKGSETTFMCEYADETATIVEFLNRWITFSQSIISTLT |
